# From patent US9249224B2 (RINAT NEUROSCIENCE CORP., priority 2011, dated 2016)
# B1: SS1: humanized GHR antagonist antibody; VL SEQ ID NO: 7, VH SEQ ID NO: 8; hIgG2Δa heavy chain SEQ ID NO: 134, light chain SEQ ID NO: 135 (antibody)
# heavy: EVQLVESGGGLVKPGGSLRLSCAASGFTFSDAWMDWVRQAPGKGLEWVAEIRSKANYHATYYAESVKGRFTISRDDSKNTLYLQMNSLKTEDTAVYYCTLIRDYWGQGTLVTVSSASTKGPSVFPLAPCSRSTSESTAALGCLVKDYFPEPVTVSWNSGALTSGVHTFPAVLQSSGLYSLSSVVTVPSSNFGTQTYTCNVDHKPSNTKVDKTVERKCCVECPPCPAPPVAGPSVFLFPPKPKDTLMISRTPEVTCVVVDVSHEDPEVQFNWYVDGVEVHNAKTKPREEQFNSTFRVVSVLTVVHQDWLNGKEYKCKVSNKGLPSSIEKTISKTKGQPREPQVYTLPPSREEMTKNQVSLTCLVKGFYPSDIAVEWESNGQPENNYKTTPPMLDSDGSFFLYSKLTVDKSRWQQGNVFSCSVMHEALHNHYTQKSLSLSPGK
# light: EIVLTQSPGTLSLSPGERATLSCTATSSVSSSYLNWYQQKPGQAPRLLIYSTSNLASGIPDRFSGSGSGTDFTLTISRLEPEDFAVYYCHQYHRSTPTFGGGTKVEIKRTVAAPSVFIFPPSDEQLKSGTASVVCLLNNFYPREAKVQWKVDNALQSGNSQESVTEQDSKDSTYSLSSTLTLSKADYEKHKVYACEVTHQGLSSPVTKSFNRGEC
# modifications: Humanized and/or affinity matured antibody sequence
# Test system: cyno GHR
# Assay: STAT5 phosphorylation in vitro assay, cyno GHR-transfected HEK293 cells
# Assay type: cell-based, cynomolgus monkey
# Settings: for fluorescent signal ave (phospho-STAT5): Table 8, cyno GHR-transfected cells
# Method: This Example illustrates the effect of GHR antibodies in an in vitro STAT5 phosphorylation assay. In this Example, the ability of GHR antibodies to block GHR downstream signaling was tested in vitro using human GHR overexpressing cells and cyno GHR overexpressing cells.
# GHR antagonist antibody Ab13 was tested for its ability to block STAT5 in an in vitro assay. HEK293 cells were transiently transfected with either DNA encoding full-length human GHR (SEQ ID NO: 140) or DNA encoding full-length cyno GHR (SEQ ID NO: 141). Cells were cultured in freestyle media for approximately 60 hours before testing. Cells were washed with DPBS (Dulbecco's Phosphate-Buffered Saline) and resuspended in Freestyle media, then counted using a hemocytometer. 1×10^6 cells were seeded per well in 6-well plates in 2 mls of Freestyle media. Cells were incubated for 2 hours at 37° C., then treated with 5, 50, or 500 nM Ab13 antibody in media. Cells were incubated at 37° C. with gentle mixing for 5 min with antibodies. 4.5 nM GH (Genotropin) was then added to all but control wells. Cells were incubated with GH at 37° C. with gentle mixing for 10 minutes.
# Following incubation with GH, 2 ml of ice cold DPBS with 1× protease inhibitor cocktail (Roche) and 1 mM sodium orthovanadate (BioLabs) were added to each well and the plates were placed on ice. Cells were transferred to 5 ml tubes and spun down to create a cell pellet and the wash buffer was aspirated, leaving the cell pellet.
# Reagents from Millipore™ MILLIPLEX® MAP Cell Signaling Buffer and Detection Kit (cat. #48-602) were used to lyse and treat the cell pellets. Millipore lysis buffer with 1× protease inhibitor cocktail and 1 mM sodium orthovanadate was added to each pellet at a volume of 200 ul/pellet. Cells were vortexed and incubated for 15 minutes at room temp with occasional vortexing. Millipore Assay buffer 2 with 1× protease inhibitor cocktail and 1 mM sodium orthovanadate was then added to the lysates at 300 ul/well.
# Millipore™ MILLIPLEX® MAP Phospho STAT5N8 (Tyr694/699) MAPmate™ beads (Cat. #46-641) were resuspended in Assay Buffer 2 (from Millipore™ kit cat. #48-602) and loaded on a 96-well filter plate (provided in kit) at 25 ul/well, 25 ul/well of sample lysate was added to the wells and the beads and samples were incubated overnight at 4′C with shaking in the dark.
# The liquid was then aspirated using a vacuum manifold and the remaining beads were washed using Millipore™ kit wash buffer. 25 ul Millipore™ kit detection antibody was added and incubated for 1 hour at room temperature with shaking in the dark. The detection antibody was vacuumed through and 25 ul kit streptavidin—Phycoerythrin was added and incubated in the dark for 15 min with shaking. 25 ul kit amplification buffer was then added and incubated for 15 min with shaking in the dark. The liquid was aspirated using a vacuum manifold, and the beads were resuspended in 150 ul kit assay buffer 2 and mixed on a shaker for 5 minutes before reading the plate.
# The plate was read using a Luminex™ 200 instrument and fluorescent signal emitted from the samples was measured, The results of the STAT5 assay are shown in Tables 5 and 6. “Ave” indicates the average fluorescent signal, and “SEM” indicates the standard error of the mean.
# Antibodies SS3 and SS1 (hIgG2Δa) were tested using a STAT5 phosphorylation assay. For the STAT5 assay, full-length human GHR overexpressing HEK293 cells or full-length cyno GHR-overexpressing HEK293 cells were cultured, counted by automated cell counter, and seeded in warm freestyle media in 12-well plates (5×10^5 cells/well in 1 ml media). Cells were allowed to settle for 3 hours at 37° C. then treated with 2.5, 5, 50, or 500 nM of SS1 or SS3 in media. […] Cells were incubated with GH at 37° C. with gentle mixing for 10 minutes.
# Reagents from Millipore™ MILLIPLEX® MAP Cell Signaling Buffer and Detection Kit (cat, #48-602) were used to lyse and treat the cell pellets. […]
# cyno GHR, sequence (as listed by the source): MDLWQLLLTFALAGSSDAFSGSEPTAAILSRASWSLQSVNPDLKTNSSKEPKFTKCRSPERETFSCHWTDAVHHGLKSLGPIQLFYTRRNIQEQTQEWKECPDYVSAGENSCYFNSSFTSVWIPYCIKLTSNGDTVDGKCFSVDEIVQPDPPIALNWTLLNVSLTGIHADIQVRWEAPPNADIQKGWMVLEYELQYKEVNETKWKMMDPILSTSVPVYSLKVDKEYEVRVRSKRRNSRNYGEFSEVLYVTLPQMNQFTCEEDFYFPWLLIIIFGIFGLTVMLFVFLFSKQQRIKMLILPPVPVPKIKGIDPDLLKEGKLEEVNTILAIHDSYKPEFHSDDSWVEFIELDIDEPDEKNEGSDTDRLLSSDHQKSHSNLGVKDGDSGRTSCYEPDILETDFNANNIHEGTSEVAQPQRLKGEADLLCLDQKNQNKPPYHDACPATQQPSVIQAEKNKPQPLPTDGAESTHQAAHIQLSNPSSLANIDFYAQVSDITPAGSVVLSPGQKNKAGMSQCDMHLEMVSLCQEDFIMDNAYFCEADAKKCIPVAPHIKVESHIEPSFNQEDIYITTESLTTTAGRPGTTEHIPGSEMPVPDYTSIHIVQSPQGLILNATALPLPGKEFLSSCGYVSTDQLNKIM
molecule,measurement,setting,value
B1,fluorescent signal ave (phospho-STAT5),2.5 nM antibody + 4.5 nM GH,496
same,fluorescent signal ave (phospho-STAT5),5 nM antibody + 4.5 nM GH,223
same,fluorescent signal ave (phospho-STAT5),50 nM antibody + 4.5 nM GH,17
same,fluorescent signal ave (phospho-STAT5),500 nM antibody + 4.5 nM GH,12
same,effect on GH-stimulated STAT5 signaling,"cells expressing cyno GHR, 4.5 nM GH",blocked STAT5 signaling in a dose-dependent manner
